Patent US20240092922A1 (EUCURE BEIJING BIOPHARMA, published 2024)

T1: monkey (Rhesus macaque) 4-1BB (r4-1BB) on transfected CHO cells (monkey (Rhesus macaque), UniProt Q07011 24-255 (human entry))
T1 construct: also called rm4-1BB; CHO-r4-1BB
T1 chain: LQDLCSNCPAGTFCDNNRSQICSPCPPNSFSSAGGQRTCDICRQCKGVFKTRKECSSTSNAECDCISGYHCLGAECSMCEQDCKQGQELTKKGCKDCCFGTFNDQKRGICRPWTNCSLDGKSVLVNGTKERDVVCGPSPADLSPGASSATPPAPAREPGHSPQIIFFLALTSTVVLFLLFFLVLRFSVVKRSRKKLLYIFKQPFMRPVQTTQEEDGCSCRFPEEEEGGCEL


Key:
[1] = target: T2, chimeric (mouse and human) 4-1BB (c4-1BB) on transfected CHO cells (chimeric (mouse and human)); assay: flow cytometry on transfected CHO cells;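 further: antibodies tested at 1 µg/ml on CHO cells for 30 min at 4 °C, binding detected with FITC- or PE-labeled anti-mouse IgG Fc secondary by flow cytometry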
T2 construct: also called chi4-1BB; CHO-c4-1BB
Protocol: (§1) 25 μl CHO cells were added to each well. 25 μl purified anti-h4-1BB antibodies (1 μg/ml) were added to each well and were incubated at 4° C. for 30 minutes.
(§2) After being washed with PBS (1200 rmp, 5 min) twice, 50 μl of FITC labeled anti-mouse IgG Fc antibody (anti-mIgG Fc-FITC) was added into each well at 1:100 dilution, followed by incubating at 4° C. for 30 minutes, and then PBS wash (1200 rmp, 5 min). In some cases, PE labeled anti-mouse IgG Fc antibody (anti-mIgG Fc-PE) was used to label the antibody instead, and was added into each tested well at 1:500 dilution. The signals for FITC and PE were determined by flow cytometry.

[2] = target: T1, monkey (Rhesus macaque) 4-1BB (r4-1BB) …; assay: flow cytometry on transfected CHO cells;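 further: antibodies tested at 1 µg/ml on CHO cells for 30 min at 4 °C, binding detected with FITC- or PE-labeled anti-mouse IgG Fc secondary by flow cytometry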
Protocol: as §1, §2

[3] = target: T3, human 4-1BB (h4-1BB) on transiently transfected CHO cells (human, UniProt Q07011 24-255); assay: flow cytometry, CHO cells transfected with human 4-1BB, antibody at 0.001 µg/ml
T3 construct: also called TNFRSF9; CD137
Protocol: (§3) 25 μl CHO cells transiently transfected with human 4-1BB were added to each well in a plate. The purified antibodies were titrated to final concentrations of 10, 1, 0.1, 0.01, 0.001 μg/ml. The titrated antibodies were added to each well at 4° C. and incubated for 30 minutes.
(§4) After being washed with phosphate-buffered saline (PBS) (1200 rpm, 5 minutes) twice, 50 μl of FITC labeled anti-mouse IgG Fc antibody (anti-mIgG Fc-FITC) at 1:100 dilution was added into each well, and incubated for 30 minutes at 4° C., followed by PBS wash (1200 rpm, 5 minutes). The signal for FITC was detected by flow cytometry.

[4] = target: T3, human 4-1BB (h4-1BB) on transiently …; assay: flow cytometry, CHO cells transfected with human 4-1BB, antibody at 0.1 µg/ml
Protocol: as §3, §4

[5] = target: T3, human 4-1BB (h4-1BB) on transiently …; assay: flow cytometry, CHO cells transfected with human 4-1BB, antibody at 10 µg/ml
Protocol: as §3, §4

[6] = target: T3, human 4-1BB (h4-1BB) on transiently …; assay: flow cytometry, CHO cells transfected with human 4-1BB, antibody at 1 µg/ml
Protocol: as §3, §4

[7] = target: T4, mouse 4-1BB (m4-1BB) on transfected CHO cells (mouse, UniProt P20334 24-256); assay: flow cytometry on CHO cells transfected with mouse 4-1BB
T4 construct: also called CHO-m4-1BB
Protocol: as §1, §2

[8] = target: T3, human 4-1BB (h4-1BB) on transiently …; assay: flow cytometry, CHO cells transfected with human 4-1BB, antibody at 0.01 µg/ml
Protocol: as §3, §4

| Binder | binding result [1] | binding result [2] | percentage of cells with FITC signal [3] [%] | percentage of cells with FITC signal [4] [%] | percentage of cells with FITC signal [5] [%] | percentage of cells with FITC signal [6] [%] | binding result [7] | percentage of cells with FITC signal [8] [%] |
| --- | --- | --- | --- | --- | --- | --- | --- | --- |
| 45-7E9 (antibody, V domains shown, mouse antibody purified from ascites) VH: QVQLKQSGPGLVQPSQSLSITCTVSGFSLTTYGVHWVRQPPGKGLEWLGVIWSDGNTDYNDAFISRLSITKDNSTSQVFFKMNGLQADDTAIYYCARNSITSVSFDCWGQGTTLTVSS VL: DIVMTQSQKFMSTSVGDRVSVTCKASQNVGTTVAWYQQRPGQSPKALICSASYRYSGVPDRFTGSGSGTDFTLTISNVQSEDLAEYFCQQYNSYPLTFGSGTKLEIK | binds | binds | 0.703 | 50 | 57.6 | 58.4 | no binding (tested: 1 µg/ml) | 12.7 |
| 45-4B9 (antibody, V domains shown, mouse antibody purified from ascites) VH: EVQLQQSGPELVKPGASVKMSCKASGYTFTTYVMYWVKQRPGQGLEWIGYINPYNDDIRYNEKFKGKATLTSDRSSSTAYMELSSLTSEDSAVYLCARQGGDYWGQGTILTVSS VL: DVQITQSPSYLAASPGETITVNCRASKNINKYLAWYQEKPGKTNKLLIYSGSTLQSGIPSRFSGSGSGTDFTLTISSLEPEDFAVYHCQQYNEYPLTFGAGTKLEMK | binds | binds | 1.86 | 10.4 | 56.2 | 49.3 | no binding (tested: 1 µg/ml) | 1.2 |
| 45-7G9 (antibody, V domains shown, mouse antibody purified from ascites) VH: QVQLQQPGSALVRPGASVKLSCKASGYTFSNYWIHWVKQRHGQGLEWIGNIYPASDYTNYDEKFKNKGTLTVDTSSSTAYMHLSSLTSEDSAVYYCSRGYFGSLDYWGQGTSVTVSA VL: DILLTQSPAILSVNPGERVSFSCRASQPIGTGIHWYQQRTNGSPRLLIKSASESISGIPSRFSGSGSGTDFTLTINNVESDDVGDYYCQQSYSWPTTFGGGTKLKIN | binds | binds | 1 | 25.9 | 57.9 | 55.1 | no binding (tested: 1 µg/ml) | 0.96 |
| 45-2B3 (antibody, V domains shown, mouse antibody purified from ascites) VH: QVQLQQSGPELVKPGASVKISCKTSGYAFSTSWMNWVKQRPGQGLEWIGRIYPGDGDTDYNGRFKGKATLTADKSSSTAYLQLSSLTSVDSAVYFCARLDGYYEVFYFDYWGQGTTLTVSS VL: not shown | binds | binds | 0.504 | 12 | 62.2 | 51.8 | no binding (tested: 1 µg/ml) | 0.622 |
| 45-8F1 (antibody, V domains shown, mouse antibody purified from ascites) VH: EVQLQQSGTVLARPGASVKMSCKASGYSFTSYWMHWVKQRPGQGLEWIGVIYPGNSDTSYNQKFKGKAKLTAVTSASTAYMDLSSLTNEDSAVYYCTRGITTAPDYWGQGTTLTVSS VL: NIVMTQSPKSMSMSVGERVTLSCKASENVGIHVSWYQQKPEQSPKLLIYGASSGYNGVPDRFTGSGSATDFTLTISSVQPEDLADYHCGQTYSYPFTFGSGTKLEIK | binds | binds | 1.38 | 43.9 | 58.6 | 56.1 | no binding (tested: 1 µg/ml) | 6.21 |
